Measured values from patent US20210221894A1 (DRAGONFLY THERAPEUTICS, published 2021).
Changes are numbered by the printed parent chain. One block for each binder: values may come before it.

Tests used:
[1] = molecular target: T1, recombinant human NKG2D-Fc fusion protein (human, UniProt P26718 73-216); experiment: ELISA, plate-bound recombinant human NKG2D-Fc, anti-human kappa-HRP/TMB
T1 construct: extracellular domain; also called NKG2D-Fc-biotin; not shown: human IgG1 Fc domain
T1 sequence (looked up): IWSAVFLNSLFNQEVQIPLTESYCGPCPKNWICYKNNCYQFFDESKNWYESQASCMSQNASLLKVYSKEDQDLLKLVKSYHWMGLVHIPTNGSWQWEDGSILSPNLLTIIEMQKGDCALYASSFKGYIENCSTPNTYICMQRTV
Description: (§1) The nucleic acid sequences of human, mouse or cynomolgus NKG2D ectodomains were fused with nucleic acid sequences encoding human IgG1 Fc domains and introduced into mammalian cells to be expressed. After purification, NKG2D-Fc fusion proteins were adsorbed to wells of microplates. After blocking the wells with bovine serum albumin to prevent non-specific binding, NKG2D-binding domains were titrated and added to the wells pre-adsorbed with NKG2D-Fc fusion proteins. Primary antibody binding was detected using a secondary antibody which was conjugated to horseradish peroxidase and specifically recognizes a human kappa light chain to avoid Fc cross-reactivity. 3,3′,5,5′-Tetramethylbenzidine (TMB), a substrate for horseradish peroxidase, was added to the wells to visualize the binding signal, whose absorbance was measured at 450 nm and corrected at […]. An NKG2D-binding domain clone, an isotype control or a positive control (comprising heavy chain and light chain variable domains selected from SEQ ID NOs:101-104, or anti-mouse NKG2D clones MI-6 and CX-5, eBioscience, San Diego, Calif.) was added to each well.

[2] = molecular target: T2, recombinant cynomolgus NKG2D-Fc fusion protein (cynomolgus; human, UniProt P61252 73-216); experiment: ELISA, plate-bound recombinant cynomolgus NKG2D-Fc, anti-human kappa-HRP/TMB
T2 construct: extracellular domain; not shown: human IgG1 Fc domain
T2 sequence (looked up): T1 sequence (looked up) with D43N, T133I
Description: as §1

[3] = molecular target: T1, recombinant human NKG2D-Fc fusion …; experiment: competition ELISA: plate-bound human NKG2D-Fc, saturating ULBP-6-His-biotin as blocked ligand, streptavidin-HRP
Description: Recombinant human NKG2D-Fc proteins were adsorbed to wells of a microplate, and the wells were blocked with bovine serum albumin to reduce non-specific binding. A saturating concentration of ULBP-6-His-biotin was added to the wells, followed by addition of the NKG2D-binding domain clones. After a 2-hour incubation, wells were washed and ULBP-6-His-biotin that remained bound to the NKG2D-Fc coated wells was detected by streptavidin-conjugated to horseradish peroxidase and TMB substrate. Absorbance was measured at 450 nm and corrected at […]. After subtracting background, specific binding of NKG2D-binding domains to the NKG2D-Fc proteins was calculated from the percentage of ULBP-6-His-biotin that was blocked from binding to the NKG2D-Fc proteins in wells.

[4] = molecular target: T3, recombinant mouse NKG2D-Fc fusion protein (mouse; human, UniProt O54709 90-232); experiment: ELISA, plate-bound recombinant mouse NKG2D-Fc, anti-human kappa-HRP/TMB
T3 construct: extracellular domain; also called Mouse NKG2D-Fc-biotin; not shown: human IgG1 Fc domain
T3 sequence (looked up): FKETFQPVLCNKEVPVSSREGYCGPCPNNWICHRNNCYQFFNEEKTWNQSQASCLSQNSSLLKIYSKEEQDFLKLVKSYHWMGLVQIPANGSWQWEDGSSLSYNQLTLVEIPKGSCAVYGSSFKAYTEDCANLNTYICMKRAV
Description: as §1

[5] = molecular target: T3, recombinant mouse NKG2D-Fc fusion …; experiment: competition ELISA: plate-bound mouse Rae-1 delta-Fc, mouse NKG2D-Fc-biotin in solution; blocked ligand Rae-1 delta
Description: Recombinant mouse Rae-1 delta-Fc (R&D Systems, Minneapolis, Minn.) was adsorbed to wells of a microplate, and the wells were blocked with bovine serum albumin to reduce non-specific binding. Mouse NKG2D-Fc-biotin was added to the wells followed by NKG2D-binding domains. After incubation and washing, NKG2D-Fc-biotin that remained bound to Rae-1delta-Fc coated wells was detected using streptavidin-HRP and TMB substrate. Absorbance was measured at 450 nm and corrected at […]. After subtracting background, specific binding of NKG2D-binding domains to the NKG2D-Fc proteins was calculated from the percentage of NKG2D-Fc-biotin that was blocked from binding to the Rae-1delta-Fc coated wells.

[6] = molecular target: T4, full-length form of the extracellular portion of DLL3 expressed on transduced RPMI-8226 cells (Homo sapiens (Human), UniProt Q9NYJ7 27-492); experiment: flow cytometry, RPMI-8226 cells transduced to express full-length extracellular DLL3, fluorophore-conjugated anti-human IgG
T4 construct: also called DLL3-D1-6; DLL3+ RPMI-8226 cells
T4 sequence: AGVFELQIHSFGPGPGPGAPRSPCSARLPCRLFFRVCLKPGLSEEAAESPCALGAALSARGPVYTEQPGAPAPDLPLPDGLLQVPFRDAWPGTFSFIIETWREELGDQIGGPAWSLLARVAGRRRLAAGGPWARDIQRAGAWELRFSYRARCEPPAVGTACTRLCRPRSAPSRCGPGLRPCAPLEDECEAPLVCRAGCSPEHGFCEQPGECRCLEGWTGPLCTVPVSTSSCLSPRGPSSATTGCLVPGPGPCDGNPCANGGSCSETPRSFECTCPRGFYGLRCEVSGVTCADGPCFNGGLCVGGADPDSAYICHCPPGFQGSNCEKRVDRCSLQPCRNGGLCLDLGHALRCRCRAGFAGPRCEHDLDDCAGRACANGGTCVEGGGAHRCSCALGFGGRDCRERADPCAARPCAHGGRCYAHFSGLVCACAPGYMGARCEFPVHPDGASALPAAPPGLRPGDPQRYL
Description: Anti-DLL3 mAbs were diluted and incubated with DLL3⁺ RPMI-8226 cells. The cells were analyzed by flow cytometry and binding of a mAb was detected using a fluorophore conjugated anti-human IgG secondary antibody.

human DLL3-His = molecular target: T5, human DLL3-His (human, UniProt Q9NYJ7 27-492); experiment: SPR (Biacore 8K), 37 C, antibody captured on anti-human Fc, DLL3-His 0.411-300 nM injected, 1:1 fit
T5 construct: also called hDLL3
T5 sequence: T4 sequence
Description: The kinetics of binding of different humanized variants and parental murine 5E7 antibody to human DLL3-His was studied by Surface Plasmon Resonance using a Biacore 8K instrument. Briefly, anti-hFc and anti-mFc IgG proteins were covalently immobilized onto different channels of CMS chip to allow simultaneous analysis of human and murine antibodies. m5E7 was captured on the anti-mouse Fc channel and humanized variants were captured on the anti-human Fc channel at a desired capture level of […] in HBS-EP+ buffer supplemented with 0.1% BSA. Three buffer blanks and human DLL3-His (analyte) at concentrations 0.411-300 nM (in three fold dilutions) were injected over the surface with captured murine or humanized 5E7 for 300 second association time and let dissociate for 600 second at a flow rate of 30 μL/min. The surfaces were subjected to regeneration with three 20-second pulses of 10 mM glycine pH 1.70 at a flow rate of 100 μL/min between every concentration of analyte. The experiment was conducted at 37° C. Data were double referenced and a 1:1 fit model was applied to the sensorgrams in the Biacore Insight Evaluation software.
The kinetic parameters of human DLL3-His binding to murine and humanized variants of 5E7 antibody variants were calculated and shown in Table 39.

recombinant human DLL4 = recombinant human DLL4 (human, UniProt Q9NR61 27-524, limits assumed); experiment: ELISA, plate-bound recombinant human DLL4 (0.5 µg/mL), anti-mouse IgG-HRP/TMB, % of positive control max
Description: (§2) To investigate the binding of anti-DLL3 antibodies to human DLL3, wells of high binding flat-bottom plates were coated with recombinant human DLL3 diluted to 0.5 μg/ml. To assess cross-reactivity of the antibodies to DLL1/DLL4, which are closely related family members to DLL3, plates were coated with recombinant human DLL1 diluted to 1 μg/ml, or human DLL4 diluted to 0.5 μg/ml. […] Binding was detected using anti-mouse IgG-HRP and 3,3′,5,5′-Tetramethylbenzidine (TMB) substrate. Signals were normalized to the corresponding positive control antibody.

[7] = molecular target: T6, recombinant human DLL3 (ELISA coat) (human, UniProt Q9NYJ7 27-492); experiment: ELISA, plate coated with recombinant human DLL3 0.5 µg/ml, anti-mouse IgG-HRP
T6 sequence: T4 sequence
Description: as §2
Table 38 lists the calculated EC₅₀ based on the binding data from FIG. 24.

recombinant human DLL1 = molecular target: T7, recombinant human DLL1 (human, UniProt O00548 18-540, limits assumed); experiment: ELISA, plate-bound recombinant human DLL1 (1 µg/mL), anti-mouse IgG-HRP/TMB, % of positive control max
T7 sequence (looked up): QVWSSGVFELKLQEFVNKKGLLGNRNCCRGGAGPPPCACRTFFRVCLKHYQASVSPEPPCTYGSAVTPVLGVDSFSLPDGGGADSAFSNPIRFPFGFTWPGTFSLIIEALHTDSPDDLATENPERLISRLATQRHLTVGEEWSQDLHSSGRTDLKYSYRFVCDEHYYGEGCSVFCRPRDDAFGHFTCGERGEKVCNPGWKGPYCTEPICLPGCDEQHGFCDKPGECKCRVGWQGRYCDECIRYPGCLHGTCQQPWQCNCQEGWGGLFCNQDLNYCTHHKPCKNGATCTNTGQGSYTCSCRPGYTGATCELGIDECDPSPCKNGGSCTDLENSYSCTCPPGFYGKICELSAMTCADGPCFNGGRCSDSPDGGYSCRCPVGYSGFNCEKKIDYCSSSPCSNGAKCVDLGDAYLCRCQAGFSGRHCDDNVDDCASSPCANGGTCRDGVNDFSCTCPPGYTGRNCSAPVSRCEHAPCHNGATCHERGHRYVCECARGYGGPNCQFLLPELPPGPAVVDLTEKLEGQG
Description: as §2

Chain of recombinant human DLL4 (Q9NR61 27-524 limits assumed): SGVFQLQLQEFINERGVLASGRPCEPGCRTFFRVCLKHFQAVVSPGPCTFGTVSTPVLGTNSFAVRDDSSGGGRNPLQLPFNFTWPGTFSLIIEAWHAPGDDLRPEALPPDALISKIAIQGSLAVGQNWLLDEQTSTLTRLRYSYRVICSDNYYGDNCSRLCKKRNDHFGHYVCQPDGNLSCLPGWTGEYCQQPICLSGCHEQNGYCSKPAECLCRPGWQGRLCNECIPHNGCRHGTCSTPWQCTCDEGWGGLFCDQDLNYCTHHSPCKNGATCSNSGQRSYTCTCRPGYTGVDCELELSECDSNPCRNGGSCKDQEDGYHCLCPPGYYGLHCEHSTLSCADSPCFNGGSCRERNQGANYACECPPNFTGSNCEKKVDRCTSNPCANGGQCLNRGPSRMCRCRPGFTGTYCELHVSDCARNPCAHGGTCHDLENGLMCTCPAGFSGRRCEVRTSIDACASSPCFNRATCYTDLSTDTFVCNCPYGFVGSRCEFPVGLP

B3: humanized anti-DLL3 antibody h5E7 (antibody, V domains shown)
VH: QVQLVQSGAEVKKPGASVKVSCKASGFNIKDDYIHWVRQAPGQGLEWMGWIDSENGDTEYASKFQGRVTITADTSANTAYMELSSLRSEDTAVYYCATSSYYSYDLFVYWGQGTLVTVSS
VL: DVQMTQSPSSLSASVGDRVTITCKSSQSLLHSNGKTYLNWLQQKPGQAPKLLLYLVSKLESGVPSRFSGSGSGTDYTLTISSLQPEDFATYYCLQTTHLYTFGQGTKLEIK
notes: Expressed as IgG1 mAb: human IgG1 CH1-CH2-CH3 and human constant kappa
EC50 (read off the curve) [6]: ~7 nM
Kd (human DLL3-His): 8.72 nM
koff (human DLL3-His): 0.00697 s⁻¹
kon (human DLL3-His): 799000 M⁻¹ s⁻¹

B4: anti-DLL3 antibody clone 2H6 (antibody, V domains shown)
VH: QIQLVQSGPELKKPGETVKISCKASGYTFTTYGVNWVKQAPGKGLKWMGWINTYSGVPTYADDFKGRFAFSLETIATTAYLQINNLKNEDTATYFCARFGNYGFDYWGQGTTLTVSS
VL: DIVMTQSPSSLSVSAGEKVTMSCKSSQSLVNSGNQKNYLAWYQQKPGQPPKLLISGASTRESGVPDRFTGSGSGTDFTLTISSVQAEDLAVYYCQNDHNYPYTFGGGTKLEIK
notes: Murine antibody from a mouse hybridoma
binding result (recombinant human DLL4): no binding
EC50 [7]: 0.06 nM
binding result (recombinant human DLL1): no binding

B5: chimeric protein of murine 5E7 variable regions and human IgG1/Igκ constant regions (antibody, V domains shown)
VH: EVQLQQSGAELVRPGASVKLSCTASGFNIKDDYIHWVKQWPEQGLEWIGWIDSENGDTEYASKFQGKATMTADTSSNTAYLQLSGLTSEDTAVYYCTTSSYYSYDLFVYWGQGTLVTVSA
VL: DVLMTQTPLTLSVPIGQPASISCKSSQSLLHSNGKTYLNWLLQRPGQSPKLLIYLVSKLESGVPDRFSGSGSGTDFTLKISRVEAEDLGVYYCLQTTHLYTFGGGTKLEIK
notes: VH cloned onto human IgG1 CH1-CH2-CH3, VL onto human constant kappa
EC50 (read off the curve) [6]: ~3 nM

The next lines start with the values.

EC50 (read off the curve) [1]: ~0.4 nM
EC50 (read off the curve) [2]: ~0.3 nM
IC50 (read off the curve) [3]: ~6 nM
EC50 (read off the curve) [4]: ~0.2 nM
IC50 (read off the curve) [5]: ~20 nM
B1: ADI-27740 (antibody, V domains shown)
VH: QVQLQQWGAGLLKPSETLSLTCAVYGGSFSGYYWSWIRQPPGKGLEWIGEIDHSGSTNYNPSLKSRVTISVDTSKNQFSLKLSSVTAADTAVYYCARARGPWSFDPWGQGTLVTVSS
VL: DIQMTQSPSTLSASVGDRVTITCRASQSIGSWLAWYQQKPGKAPKLLIYKASSLESGVPSRFSGSGSGTEFTLTISSLQPDDFATYYCQQYHSFYTFGGGTKVEIK
notes: also called A40

EC50 (read off the curve) [1]: ~0.3 nM
EC50 (read off the curve) [2]: ~0.3 nM
IC50 (read off the curve) [3]: ~2 nM
EC50 (read off the curve) [4]: ~0.2 nM
IC50 (read off the curve) [5]: ~20 nM
B2: ADI-27743 (antibody, V domains shown)
VH: B1 VH
VL: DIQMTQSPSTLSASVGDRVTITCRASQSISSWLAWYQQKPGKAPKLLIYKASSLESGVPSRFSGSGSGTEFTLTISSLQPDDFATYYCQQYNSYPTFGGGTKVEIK
